The record followed here is patent US9346889 (MEDIAPHARMA S R L, dated 2016).

The target in assay [1] is T1, human ErbB3 receptor (human, UniProt P21860 20-1342).
T1 construct: whole, on cells; also called HER-3; HER3
Description: hybridoma screening; reactivity with NIH/3T3 cells transfected with human ErbB3. The protocol:
Four-weeks old Balb/c mice were immunized by intraperitoneal injection of live NIH/3T3 cells transfected with the human ErbB3 receptor. Seven days later, mice were given an additional intraperitoneal injection of the immunogen. After additional seven days, mice were boosted intravenously with the immunogen, and spleens were removed for cell fusion 3 days later. Somatic cell hybrids were prepared by fusion of immune splenocytes with the murine nonsecreting myeloma cell line NS-1. Hybridoma supernatants were selected on the basis of differential reactivity with LTR-ErbB3 transfected cells, but not with LTR-neo NIH/3T3. All positive hybridoma cell colonies were cloned twice by limiting dilution and further characterized.

In assay [2] the target is T1, human ErbB3 receptor. Description: immunofluorescence on IR-8 human melanoma cells. The method, then: IR-8 human melanoma cells were maintained on ice for 30 minutes in the presence of 10 µg/ml of chimeric (cMP-RM-1 #1) or humanized (hMP-RM-1 #6, hMP-RM-1 #10, hMP-RM-1 #20) MP-RM-1 antibody variants and then returned to 37° C. for 60 minutes. Cells were harvested and stained with a fluorescein-labeled goat anti-human IgG antibody and analyzed by FACS.

Assay [3] deals with T1, human ErbB3 receptor. Description: immunofluorescence on IR-8 human melanoma cells, 10 ug/ml, on ice.

Substitutions are numbered along the chain they refer to.

T1 sequence (P21860 20-1342): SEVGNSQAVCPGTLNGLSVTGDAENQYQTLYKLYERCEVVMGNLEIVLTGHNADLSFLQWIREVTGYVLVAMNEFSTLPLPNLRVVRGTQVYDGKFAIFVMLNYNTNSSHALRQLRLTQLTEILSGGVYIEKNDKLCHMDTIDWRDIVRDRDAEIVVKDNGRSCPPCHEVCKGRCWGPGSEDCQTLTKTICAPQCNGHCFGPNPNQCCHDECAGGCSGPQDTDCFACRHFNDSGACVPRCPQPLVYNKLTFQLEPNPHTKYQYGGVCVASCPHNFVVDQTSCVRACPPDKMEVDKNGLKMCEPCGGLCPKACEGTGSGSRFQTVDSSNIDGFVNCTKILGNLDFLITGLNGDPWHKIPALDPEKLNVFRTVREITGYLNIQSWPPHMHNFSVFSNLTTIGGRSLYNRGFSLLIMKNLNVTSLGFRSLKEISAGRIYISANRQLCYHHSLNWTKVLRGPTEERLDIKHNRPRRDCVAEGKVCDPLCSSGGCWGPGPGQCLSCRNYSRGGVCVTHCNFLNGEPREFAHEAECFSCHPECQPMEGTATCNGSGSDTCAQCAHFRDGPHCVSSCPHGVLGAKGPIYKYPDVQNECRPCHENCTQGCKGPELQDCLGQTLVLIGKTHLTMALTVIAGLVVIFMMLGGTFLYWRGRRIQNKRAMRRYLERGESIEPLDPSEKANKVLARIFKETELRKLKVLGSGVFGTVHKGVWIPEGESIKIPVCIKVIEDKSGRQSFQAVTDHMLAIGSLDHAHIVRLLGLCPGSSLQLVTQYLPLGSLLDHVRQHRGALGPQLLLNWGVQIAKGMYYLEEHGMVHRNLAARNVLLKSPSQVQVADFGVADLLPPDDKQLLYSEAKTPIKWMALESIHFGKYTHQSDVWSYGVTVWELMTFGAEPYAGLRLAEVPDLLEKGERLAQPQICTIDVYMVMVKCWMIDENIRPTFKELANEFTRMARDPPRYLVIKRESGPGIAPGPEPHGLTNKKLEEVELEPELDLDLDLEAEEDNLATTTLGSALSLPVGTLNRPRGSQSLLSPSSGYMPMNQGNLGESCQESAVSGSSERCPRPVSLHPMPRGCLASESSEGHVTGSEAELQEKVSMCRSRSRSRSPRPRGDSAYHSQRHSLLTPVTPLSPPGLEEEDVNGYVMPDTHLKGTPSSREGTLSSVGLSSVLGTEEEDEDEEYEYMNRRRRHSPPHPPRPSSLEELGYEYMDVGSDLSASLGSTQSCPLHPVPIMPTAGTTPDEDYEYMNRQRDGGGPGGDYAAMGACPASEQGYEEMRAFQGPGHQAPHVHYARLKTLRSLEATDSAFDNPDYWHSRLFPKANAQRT

B1: monoclonal antibody MP-RM-1 (antibody, V domains shown)
VH: DVQLVESGGDLVKPGGSLKLSCVVSGFTFSTYGMSWVRQTPDRRLEWVATISHGDGYTYYPDSVKGRFTISRDNAKNTLHLQMSSLKSEDTAMYYCARHGDYDDDYYAMDYWGQGTSVTVS
VL: DIVMTQSPSSLTVIAGEKVTMSCKSSQSLLNSGNQKNYLTWYQQKPGQPPKLLIYWASTRESGVPDRFTGSGSGTDFTLTISSVQAEDLAVYYCQNEYTYPLTFGAGTKLELKR
notes: Murine IgG2a from hybridoma DSM ACC3018; also called DSM ACC3018
Take B1: in the assay with human ErbB3 receptor [1], the binding result is “binds”.

B2: cMP-RM-1 #1 (antibody, human IgG1, kappa, V domains shown)
VH: DVQLVESGGDLVKPGGSLKLSCVVSGFTFSTYGMSWVRQTPDRRLEWVATISHGDGYTYYPDSVKGRFTISRDNAKNTLHLQMSSLKSEDTAMYYCARHGDYDDDYYAMDYWGQGTSVTFSS
VL: B1 VL with L112I
notes: Chimeric human IgG1/kappa, from CHO-S cells; Signal peptide left out; also called chimeric variant cMP-RM-1 #1
On to B2, for which, in the assay with human ErbB3 receptor [2], the binding result is “binds”.

B3: hMP-RM-1 #20 (antibody, human IgG1, kappa, V domains shown)
VH: B2 VH with V24A, S117T, F120V
VL: B1 VL with I14S, A15L, K18R, V19A, T69S, L89V, A106G
notes: Humanized IgG1/kappa, from CHO-S cells
Consider B3, for which the binding result in the assay with human ErbB3 receptor [2] is on record as “binds”.

B4: hMP-RM-1 #6 (antibody, human IgG1, kappa, V domains shown)
VH: B2 VH with D10G, K13Q, K19R, V23A, V24A, R43K, H80Y, S117L, F120V
VL: DIQMTQSPSSLSASVGDRVTITCKSSQSLLNSGNQKNYLTWYQQKPGKAPKLLIYWASTRESGVPSRFSGSGSGTDFTLTISSLQPEDFATYYCQNEYTYPLTFGQGTKVEIKR
notes: Humanized IgG1/kappa, from CHO-S cells; also called humanized MP-RM-1 #6; humanized MP-RM-1#6
Take B4: in the assay with human ErbB3 receptor [3], the binding result is listed as “binds”.

B5: hMP-RM-1 #10 (antibody, human IgG1, kappa, V domains shown)
VH: DVQLVESGGGLVQPGGSLRLSCAVSGFTFSTYGMSWVRQAPGKGLEWVATISHGDGYTYYPDSVKGRFTISRDNSKNTLYLQMNSLRAEDTAVYYCARHGDYDDDYYAMDYWGQGTLVTVSS
VL: B4 VL
notes: as for B3
As to B5, the binding result with human ErbB3 receptor [2] is on record as “binds”.
